From patent US20230338423A1 (published 2023)

T1: V5-tagged mouse Susd2 (mouse, UniProt Q9DBX3 23-820)
T1 construct: Retrovirally expressed in Susd2-/- OT-I T cells and precipitated from RIPA lysates with anti-V5 agarose; also called V5-Susd2; pMIG II-Susd2; not shown: V5 and His tag
T1 sequence: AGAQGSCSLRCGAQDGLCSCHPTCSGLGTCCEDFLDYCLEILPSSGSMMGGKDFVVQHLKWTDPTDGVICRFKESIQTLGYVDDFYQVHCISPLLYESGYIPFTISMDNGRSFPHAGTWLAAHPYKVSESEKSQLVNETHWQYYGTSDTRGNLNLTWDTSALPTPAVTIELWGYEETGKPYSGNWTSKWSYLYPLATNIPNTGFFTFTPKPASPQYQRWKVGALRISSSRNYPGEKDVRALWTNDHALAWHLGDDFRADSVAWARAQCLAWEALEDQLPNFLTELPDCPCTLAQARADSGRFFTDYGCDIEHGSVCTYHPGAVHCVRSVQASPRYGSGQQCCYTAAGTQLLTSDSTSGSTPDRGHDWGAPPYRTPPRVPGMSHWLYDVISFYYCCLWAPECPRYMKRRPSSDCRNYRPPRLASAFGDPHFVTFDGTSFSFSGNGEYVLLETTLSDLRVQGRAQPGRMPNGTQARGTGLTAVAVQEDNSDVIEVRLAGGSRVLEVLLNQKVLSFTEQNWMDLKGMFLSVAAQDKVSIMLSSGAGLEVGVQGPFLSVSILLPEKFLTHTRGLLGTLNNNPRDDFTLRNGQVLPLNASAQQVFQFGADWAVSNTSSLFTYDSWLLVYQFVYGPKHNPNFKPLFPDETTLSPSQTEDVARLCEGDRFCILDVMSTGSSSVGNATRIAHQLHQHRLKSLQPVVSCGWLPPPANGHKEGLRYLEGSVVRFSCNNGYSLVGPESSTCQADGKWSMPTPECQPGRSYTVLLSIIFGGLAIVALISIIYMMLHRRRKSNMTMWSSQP

T2: V5-SUSD2 (human SUSD2, V5-tagged) (human, UniProt Q9UGT4 28-822)
T2 construct: Overexpressed in 293T cells or Jurkat T cells; also called SUSD2^WT; not shown: V5 and His tag
T2 sequence: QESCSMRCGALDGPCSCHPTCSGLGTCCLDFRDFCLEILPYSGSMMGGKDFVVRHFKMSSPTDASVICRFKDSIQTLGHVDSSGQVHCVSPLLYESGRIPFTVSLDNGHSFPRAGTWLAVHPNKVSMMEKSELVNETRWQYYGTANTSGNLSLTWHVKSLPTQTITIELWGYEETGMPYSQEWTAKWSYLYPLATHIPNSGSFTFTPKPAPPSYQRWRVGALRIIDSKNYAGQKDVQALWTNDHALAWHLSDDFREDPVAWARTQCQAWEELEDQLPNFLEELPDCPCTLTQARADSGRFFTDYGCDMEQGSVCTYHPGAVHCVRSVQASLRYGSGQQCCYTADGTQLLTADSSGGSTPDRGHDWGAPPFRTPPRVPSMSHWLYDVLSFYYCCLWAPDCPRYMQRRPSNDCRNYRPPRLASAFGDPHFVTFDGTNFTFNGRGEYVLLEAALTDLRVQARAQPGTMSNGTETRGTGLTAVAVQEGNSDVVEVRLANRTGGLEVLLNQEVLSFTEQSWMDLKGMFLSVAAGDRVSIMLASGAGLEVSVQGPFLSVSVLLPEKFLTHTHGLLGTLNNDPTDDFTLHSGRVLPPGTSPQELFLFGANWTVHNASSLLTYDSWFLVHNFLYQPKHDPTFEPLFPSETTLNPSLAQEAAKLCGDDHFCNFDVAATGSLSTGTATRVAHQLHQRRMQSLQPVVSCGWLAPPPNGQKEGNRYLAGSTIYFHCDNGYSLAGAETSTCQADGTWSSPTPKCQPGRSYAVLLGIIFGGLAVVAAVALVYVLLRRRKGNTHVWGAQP

B1: mouse IL-15Rα (endogenous, OT-I T cells) (receptor, UniProt Q60819 33-263, looked up)
chain: GTTCPPPVSIEHADIRVKNYSVNSRERYVCNSGFKRKAGTSTLIECVINKNTNVAHWTTPSLKCIRDPSLAHYSPVPTVVTPKVTSQPESPSPSAKEPEAFSPKSDTAMTTETAIMPGSRLTPSQTTSAGTTGTGSHKSSRAPSLAATMTLEPTASTSLRITEISPHSSKMTKVAISTSVLLVGAGVVMAFLAWYIKSRQPSQPCRVEVETMETVPMTVRASSKEDEDTGA
notes: whole, on cells; Endogenous, probed by immunoblot in Susd2 precipitates
B2: endogenous IL-2Rα in human Jurkat T cells (receptor, UniProt P01589 22-272, looked up)
chain: ELCDDDPPEIPHATFKAMAYKEGTMLNCECKRGFRRIKSGSLYMLCTGNSSHSSWDNQCQCTSSATRNTTKQVTPQPEEQKERKTTEMQSPMQPVDQASLPGHCREPPPWENEATERIYHFVVGQMVYYQCVQGYRALHRGPAESVCKMTHGKTRWTQPQLICTGEMETSQFPGEEKPQASPEGRPESETSCLVTTTDFQIQTEMAATMETSIFTTEYQVAVAGCVFLLISVLLLSGLTWQRRQRKSRRTI
notes: whole, on cells; Endogenous protein, pulled down from Jurkat lysate
B3: mouse IL-2Rβ (endogenous, OT-I T cells) (receptor, UniProt P16297 27-539, looked up)
chain: AVKNCSHLECFYNSRANVSCMWSHEEALNVTTCHVHAKSNLRHWNKTCELTLVRQASWACNLILGSFPESQSLTSVDLLDINVVCWEEKGWRRVKTCDFHPFDNLRLVAPHSLQVLHIDTQRCNISWKVSQVSHYIEPYLEFEARRRLLGHSWEDASVLSLKQRQQWLFLEMLIPSTSYEVQVRVKAQRNNTGTWSPWSQPLTFRTRPADPMKEILPMSWLRYLLLVLGCFSGFFSCVYILVKCRYLGPWLKTVLKCHIPDPSEFFSQLSSQHGGDLQKWLSSPVPLSFFSPSGPAPEISPLEVLDGDSKAVQLLLLQKDSAPLPSPSGHSQASCFTNQGYFFFHLPNALEIESCQVYFTYDPCVEEEVEEDGSRLPEGSPHPPLLPLAGEQDDYCAFPPRDDLLLFSPSLSTPNTAYGGSRAPEERSPLSLHEGLPSLASRDLMGLQRPLERMPEGDGEGLSANSSGEQASVPEGNLHGQDQDRGQGPILTLNTDAYLSLQELQAQDSVHLI
notes: whole, on cells; Endogenous, probed by immunoblot in Susd2 precipitates; also called CD122
B4: mouse common γ chain (endogenous, OT-I T cells) (receptor, UniProt P34902 23-369, looked up)
chain: WSSKVLMSSANEDIKADLILTSTAPEHLSAPTLPLPEVQCFVFNIEYMNCTWNSSSEPQATNLTLHYRYKVSDNNTFQECSHYLFSKEITSGCQIQKEDIQLYQTFVVQLQDPQKPQRRAVQKLNLQNLVIPRAPENLTLSNLSESQLELRWKSRHIKERCLQYLVQYRSNRDRSWTELIVNHEPRFSLPSVDELKRYTFRVRSRYNPICGSSQQWSKWSQPVHWGSHTVEENPSLFALEAVLIPVGTMGLIITLIFVYCWLERMPPIPPIKNLEDLVTEYQGNFSAWSGVSKGLTESLQPDYSERFCHVSEIPPKGGALGEGPGGSPCSLHSPYWPPPCYSLKPEA
notes: whole, on cells; Endogenous, probed by immunoblot in Susd2 precipitates; also called common 7 chain

What was measured:
[1] = target: T1, V5-tagged mouse Susd2; test: anti-V5 immunoprecipitation and immunoblot, Susd2-reconstituted Susd2-/- OT-I T cells
Description: (§1) Immunoprecipitation and immunoblotting. For immunoprecipitation, cells were lysed in RIPA buffer supplemented with cOmplete™ Protease Inhibitor Cocktail (Sigma-Aldrich). […] Samples were washed 5 times with cold RIPA buffer. To elute proteins from the beads, samples were incubated with 30 μl of SDS sample buffer at 95° C. for 10 minutes. Protein content in the supernatant was analyzed by immunoblotting. For immunoblotting, electrophoresis of protein was performed by using the NuPAGE system (Invitrogen) according to the manufacturer's protocol. Briefly, cultured CD8⁺ T cells or Jurkat cells were collected and lysed with RIPA buffer. Proteins were separated on a NuPAGE precast gel and were transferred onto nitrocellulose membranes (Bio-Rad). Appropriate primary antibodies and HRP-conjugated secondary antibodies were used and proteins were detected using the Enhanced Chemiluminescent (ECL) reagent (Thermo Fisher Scientific).

[2] = target: T2, V5-SUSD2 (human SUSD2, V5-tagged); test: anti-V5 immunoprecipitation and immunoblot, Jurkat T cells
Description: as §1

Row | binding result [1] | binding result [2] | Binder
1 | no binding |  | B1
2 |  | binds | B2
3 | no binding |  | B3
4 | no binding |  | B4
